From the nanobody polyreactivity screen of Harvey et al. (2022)

Assay: yeast display, Sf9 membrane polyspecificity reagent, FACS + sequencing; frameworks hold sequencing errors
In short: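 Sorting gates, low and high (top ~1%), were placed on anti-HA fluorescence to track expression and on streptavidin fluorescence to track reagent binding. A clone's polyreactivity label is taken from the gate it came out of. The reagent was 10% biotinylated, detergent-solubilized Sf9 membrane, applied for 1 hour at 4 °C to galactose-induced yeast display cells.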

QDQLVESGRGLVQAGGSLRLSCAASGSTFDGKAMGWSRQAPGKERELVATISNSGGRSYYADSVKGRFTISRDNAKNTVYLQMNSLKPEETAVYYCAADHPAFGPGYSFDYWGQGTQVTVSS
polyreactivity (PSR sort gate): low polyreactivity

QVQLVESGGGLVQAGGSLPLSCAASGRTINTNAMGWSRQAPGKERELVAAISGGGSTYADSVKGRFTISRDNAKNTVYLQMNSLKPEDTAVYYCAAQNVWIYGFWRDYWGQGTQVTVSS
polyreactivity (PSR sort gate): low polyreactivity

QVQLVESGGGLVHAGGSLRLSCAASGSTFRLYSMGWYRQAPGKERELVAAISSNGVRTYYADSVKGRFTISRDNAKNTVYLQMNSLKPEDTAVYYCAARVYPAYPRGYDYWGQGTQVTVSS
polyreactivity (PSR sort gate): high polyreactivity

QVQLVESGGGLVQAGGSLRLSCAACGIIFEYNAMGWYRQAPGKVRELVASIDSGGSTNYADSVKGRFTISRDNAKNTVYLQKNSLKPEDTAVYYCNADDTTVSPWYYYYQSYYWGQGTQVTVSS
polyreactivity (PSR sort gate): low polyreactivity

QVQLVESGGGLVQAGGSLRLSCAASGSTFYYNAMGWYRQSPGKERELVARISRSGGSTYADSVKRRFTISRDNAKNTVYLQMNSLKPEDTAVYYCNAEAYGTPEFTSYAVRYDYWGQGTQVTVSS
polyreactivity (PSR sort gate): low polyreactivity

QVQLVETGGGLVQAGGSLRLSCAASGSTFTRYGMGWYRQAPGKERELVADITTSGSSTYYADSVKGRFTISRDNAKNTVYLQMNSLKPEDTAVYYCAADWSSWGFDYWGQGTQVTVSS
polyreactivity (PSR sort gate): low polyreactivity

QVQLVESVGGLDQAGGSLRLSCAASGSTFGGYAMGWYRQAPGKERELVAAISSSGTSTYYADSVKGRFTISRDNAKNTVYLQMNSLKPEDNAVYYCATDFSFFSRFDYWGQGTQVTVSS
polyreactivity (PSR sort gate): low polyreactivity

QVQLVESGGGLVQAGGSLRLSCAASGRILPLYAMGWYRQAPGKERELVADITGSDGSTYYADSVKGRFTISRDNAKNTVYLQMNSLKPEDTAVYYCATDAIGRTPSDPWDYYYWGQGTQVTVSS
polyreactivity (PSR sort gate): low polyreactivity

QVQLVESGGGLVQAGGSLRLSCAASGIIFQPYTMGWYRQAPGKERELVAAISYSGGSTYYADSVKGRFTISRDNAKNTVYLQMNSLKPEDTAVYYCAARRYPYSGTHRGFYYWGQGTQVTVSS
polyreactivity (PSR sort gate): high polyreactivity

QVQLVESGGGLVQAGGSLRLSCAASGFTFYRYTMGWYRQAPGKERELVAVISSGGRTNYADSVKGRFTISRDNAKNTVYLQMNSLKPEDTAVYYCATRYPGYRDGYDYWGQGTQVSVSS
polyreactivity (PSR sort gate): high polyreactivity

QVQLVESGGGLVQAGRSLRLTCAASGFTFADNTMGWYRQAPGKDRELVAAINDAGGTNYADSVKGRFTISRDNEKNTVYLQMNSLKAEDTAVYYCAADGRIYLTYHEMEYWGQGTQVTVSS
polyreactivity (PSR sort gate): low polyreactivity

QVQLVESGGGLVQAGGSLRLSCAASGSTFPNYPMGWYRQAPGKERELVAAITWSGGSTDYADSVKGRFTISRDNAKNTVYLQMNSLKPEDTAVYYCNADFGYWWDGRRYDYWGQGTQVTVSS
polyreactivity (PSR sort gate): low polyreactivity

QVQLVESGGGLVQAGGSLRLSCAASGRTFYWNTMGWYRQAPGKERELVAAINYSGGSTYYADSVKGRFTISRDNAKNTVYLQMNSLKPEDTAVYYCAAYFHGYKSLHRARSEYNYWGQGTQVNVSS
polyreactivity (PSR sort gate): high polyreactivity

QVQLVESGGGLVQAGGSLRLSCAASGSTFVQYTMGWYRQAPGKERELVAVITGGDGSTYYADSVKGRFTISRDNAKNTVYLLMNSLKPEDTAVYYCNADVYDYLRGGYEFDYWGQGTQVTVSS
polyreactivity (PSR sort gate): low polyreactivity

QVQLVESGGGLVQAGGSLRLSCAASGRTFDPYAMGWYRQAPGKDRELVAAISRSGGSTYYADSVKGRFTISRDNAKNTVYLQMNSLKPEDTAVYYCAADASRYYYEYDYWGQGTQVTVSS
polyreactivity (PSR sort gate): high polyreactivity

QVQLVESGGGLVQAGGSLRLSCAASGRIFRWNAMGWYRQAPGKERELVAAISWNGGRTYYADSVKGRFTISRDNAKNTVYLQMNSLKPEDTAVYYCAAPHSVPDLHSGDYWGQGSQVTVSS
polyreactivity (PSR sort gate): low polyreactivity

QVQLVESGGGLVQAGGSLRLSCAASGRTFGPYAMGWYRQAPGKERELVAAITCSGGSTYYADSVKGRFTISRYNAKNTVYLQMNSLKPEDTAVYYCAPYHLSKLDYWGQGTQVTVSS
polyreactivity (PSR sort gate): low polyreactivity

QVQLVESGGGLVQAGGSLRLICAASGFISVRNAMGWYRQGPGKERELGAAISSGDTTDYADSVKGSFTISRDNAKNTVYLQMNSLKPEDTAVYYCAAVYYGRYYYWGQGTQVTVSS
polyreactivity (PSR sort gate): low polyreactivity

QVQLVESGGGLVQAGGSLRLSCAASGRTFPWYGKGWYRPAPGKERELVAAISRTGGNTYYADSVKGRFTISRDNAKNTVYLQMNSLKPEDTAVYYCNAGYYSNRYYFYDYGYWGQGTQVTVSS
polyreactivity (PSR sort gate): high polyreactivity

QVQLVESGGGLVQAGGSLRLSCAASGRIFNLYVMGWYRQAPGKERELVATISSGGSTNYADSVKGRFTISRDYAKNTVYLQMNSLKPEDTAVNYCAKPYIVYYTMDYWGQGTQVTVSS
polyreactivity (PSR sort gate): low polyreactivity

QVQLVESGGGLVQAGGSLRLSCAASGSTVENNVMGWYRQAPGQERELVATITWGDGSTSYADSVKGRFTISRDNAKNTVYLKMNSLKTEVTAVYYCDAVDRIGYGKNQDHDYWGQGTQVTVSS
polyreactivity (PSR sort gate): low polyreactivity

QVQLVDSGGGLVQAGGSLRLSCAASGSISSFYAMGWYRQAPGKERELVAGITSGGSTNYADSVKGRFTISRDNAKNTVYLQMNSLKPEDTAVYYCAAVYKGAGTHFDVFVKEFDYWGQGTQVTVSS
polyreactivity (PSR sort gate): low polyreactivity

QVQLVESGGGLVQAGGSLRLSCAASGSTFYVNAMGWYRQAPGKERELVAAISWTDDSTYYADSVKGRFTISRDNAKNTVYLQMNSLKPEDTAVYYCAAEQYRYYEVEYWGQGTQVTVSS
polyreactivity (PSR sort gate): high polyreactivity

QVQLVESGGGLVQAGGSLRLSCAASGYTFRYYAMGWYRQAPVKERELVARITGRAGSTYYADSVKGRFTISRDNAKNTVYLQMNSLKPEDTAVYYCAASIREGFYWGQGTQVTVSS
polyreactivity (PSR sort gate): high polyreactivity

QVQLVESGGGLVQAGGSLRLSCAASGFTFYYYAMGWSRQAPGKERELVAAISQNGGRTYYADSVKGRFTISRDNAKNTVYLQMNSLKPEDTAVYYCAKASGYSSYGYWGQGTQVTVSS
polyreactivity (PSR sort gate): high polyreactivity

QVQLVESGGGLVQAGGSLRLSCAASGLTFPGYAMGWYRQAPGKERELVAGISKRGGSTYYADSVKGRFTISRDNAKNTVYLQMNSLKPEDTAVYYCAAVYRSQSQPYDYWGQGTQVTVSS
polyreactivity (PSR sort gate): high polyreactivity

QVQLVESGGGLVQAGGSLRLSCAASGFTFAYYAMGWYRQAPGKETELVAAITSGGRTNYADSVKGRFTISRDNAKNTVYLQMNSVKPEDTAVDYCAKYRRGGSRHYSVFNHDYWGQGTQVTVSS
polyreactivity (PSR sort gate): high polyreactivity

QVQLVESGGGLVQAGGSLRLSCAASGFIFLGNVMGWYRQAPGKERELVAAINWSDGSTYYADSVKGRFTISRDNAKNTVYLQMNSLKPEDTAVYYCNVDAGVEGGTVDYWGQGTQVTVSS
polyreactivity (PSR sort gate): low polyreactivity

QVQLVKSGGGLVQAGGSLRLSCAASGRIIDRNAMGWYRQAPGKERELVAAISSSGSTNYADSVKGRFTISRDNAKNTVYLQMNSLKPQDTAVYYCAARWRSVLAAGTRPVSFDYWGQGTQVTVSS
polyreactivity (PSR sort gate): low polyreactivity

QVQLVESGGGLVQAGGSLRLSCAASGLIFRQYAMGWYRPAPGKERELVAAITQTGGRTYYADSVKGRFTISRDNAKNTVYLQMNSLKPEDTAVYYCNALTFAAGDHYDYWGQGTQVTVSS
polyreactivity (PSR sort gate): low polyreactivity

QVQLVESGGGLVQAGGSLRISCAASGSNFPYYAMGWYRQAPWQERELVAAISRGGGTTYYADSVKGRFTISRDNAKNTVYLQMISLKPEDTAVYYCAARQWRISTPYDYWGQGTQVTVSS
polyreactivity (PSR sort gate): high polyreactivity

QVQLVESGGGLVQAGGSLRLSCAASGSTFRGYAMGWYRQAPGKERELVAAITRGGSTYYADSVKGRFTISRDNAKNTVYLQMNSLKPEDTAVYYFYDYWGQGTQVTVSS
polyreactivity (PSR sort gate): low polyreactivity

QVQLVESGGGLVQAGGSLRLSCAASGRTFAYYVMGWYRPAPGKERQLVAAINRSDGSTSYADSVKGRFTISRDNAKNTVYLQMNSLKPEDTAVYYCAKSKPVGPYYYWGQGTQVTVSS
polyreactivity (PSR sort gate): high polyreactivity

QVQLVESGGGLVQAGGSLRLSCAASGSIFHGNAMGWYRQAHGKERELVAVISDGGSTDYADSVKGRFTISRDNANNSVYLQMTSLKPEDTAVYYCNAAYDTQYFYRKHIYYLSGYDYWGQGTQVTVSS
polyreactivity (PSR sort gate): low polyreactivity

QAQLKESGGSLVQAGGGLRLSCAASGYNSVGSVMGWYRQAPSKERELVASIDQGANTNYADSVKGRFTISRDNAKNNVYLQMNSLKPEDTAVYYCATETTYFLNYWGQGTQVTVSS
polyreactivity (PSR sort gate): low polyreactivity

QVQLVESGGGLVQSGGSLRISCAASGGIFKYNAMGWYTQAPGKERELVAAINYSGGRTYYADSVKGRFTISRDNAKNTVYLQMNSLKPEDTAVFYCNALTRGHTGQPYTYDYWGQGNQVTVSS
polyreactivity (PSR sort gate): high polyreactivity

QVQLVESGGGLVQAGGSLRLSCAASGRIFGSYAMGWYRQAPGKERELVASISGSGTSTYYADSVKGRFTISRDNAKNTVYLQMNSLKPEDTAVYYCARYVRYYPSKFYYWGQGTQVTVSS
polyreactivity (PSR sort gate): high polyreactivity

QVQLVESGGGLVQAGGSLRLSCAASGRIIIGYVMGWYRQAPGKERELVATISYSGGSTYADSVKGRFTISRDNAKNTVYLQMNSLKPEDTAVYYCAARPYYRYYRYPYGYWGQGTQVTVSS
polyreactivity (PSR sort gate): high polyreactivity

QVQLQESVGGLVQAGGSLRLSCAASGNIFPTDRMGWYRQAPGKELEFVATNSHGGSTNYADSVKGRFTISRDNAKNTVYLQMNSLKPEDTAVYYCAVWSLGRWRHYYWGQGTQVTVSS
polyreactivity (PSR sort gate): low polyreactivity

QVQLVESGGGLVQAGGSLRLSCAASGSTFGYNAMGWYRQAPGKERELVAGITGSGTRTYYADSVKGRFTISRDNAKNTVYLQMNSLKPEDTAVYYCAATPTRRYYRQSAYDYWGQGTQVTVSS
polyreactivity (PSR sort gate): high polyreactivity

QVQLEESGGGLVQAGGSLRLSCAASGFILEYYAMGWSRQATGKETELVSTISSGGSTNYADSVKGRFTISSDNAKNTVYFQMNRLKPEDTAVFYCAAARYTLSRYYYWGQGTQLTVSS
polyreactivity (PSR sort gate): high polyreactivity

LLMGWYRQAPGEERELVAGINDGASTNYADSVKGRFTISRDNARNTVYLKMNSLKPGDTAVYYCAVWQPVLIWFYYWGQGTQVTVSS
polyreactivity (PSR sort gate): high polyreactivity

QVQLVESGGGIVQSGGSLRLSCAASGRTFSSYAMGRYRQAPGKEMALVAAINRGGGSTYYADSVKGRFTISRDNAKNTVYLQMNSLKPEDTAVYYCNARSKLTYEYDYWGQGTQVTVSS
polyreactivity (PSR sort gate): high polyreactivity
